From patent US20200385482A1 (Dana-Farber, published 2020)

B1: Ab-55 (antibody, V domains shown)
VH: QVQLVQSGAEVKKPGASVKVSCKASGYTFTSYGISWVRQAPGQGLEWMGWTSPHNGLTAFAQILEGRVTMTTDTSTNTAYMELRNLTFDDTAVYFCAKVHPVFSYALDVWGQGTLVTVSS
VL: NFMLTQPHSVSESPGKTVTISCTRSSGSIASNYVQWYQQRPGSSPTTVIYEDNQRPSGVPDRFSGSIDTSSNSASLTISGLKTKDEADYYCQSYDGITVIFGGGTKLTVL
notes: also called huPD-L1 Ab # 55
B2: Ab-52 (antibody, V domains shown)
VH: QVQLQESGGGVVQPGRSLRLSCSASGFTFSRHGMHWVRQAPGKGLEWVAVISHDGSVKYYADSMKGRFSISRDNSNNTLYLQMDSLRADDTAVYYCARGLSYQVSGWFDPWGQGTLVTVSS
VL: NFMLTQPHSVSESPGKTVTISCTRSSGSIASNYVQWYQQRPGSAPTTVIYEDNQRPSGVPDRFSGSIDSSSNSASLTISGLKTEDEADYYCQSYDSTTPSVFGGGTKLTVL
notes: also called huPD-L1 Ab # 52
B3: Ab-14 (antibody, V domains shown)
VH: QVQLVQSGAEVKKPGASVKVSCKASGYTFTSYGISWVRQAPGQGLEWMGWISAYNGNTNYAQKLQGRVTMTTDTSTSTAYMELRSLRSDDTAVYYCARALPSGTILVGGWFDPWGQGTLVTVSS
VL: NFMLTQPHSVSESPGKTVTISCTRSSGNIASNYVQWYQQRPGSAPTTVIYEDNQRPSGVPDRFSGSIDSSSNSASLTISGLKTEDEADYYCQSYDSSNLWVFGGGTKLTVL
notes: also called huPD-L1 Ab # 14
B4: Ab-56 phage-scFv (scFv, V domains shown, not shown: large carriers; small tags and cut ends)
VH: EVQLVESGAEVMNPGSSVRVSCRGSGGDFSTYAFSWVRQAPGQGLEWMGRIIPILGIANYAQKFQGRVTITADKSTSTAYMELSSLRSDDTAVYYCARDGYGSDPVLWGQGTLVTVSS
VL: NFMLTQPHSVSGSPGKTVTLPCTRSSGSIASHYVQWYQQRPGSAPTTVIYEDNKRPSGVPDRFSGSIDSSSNSASLSISGLKTEDEADYYCQSYDSSNRWVFGGGTKLTVL
notes: also called Ab-56 scFv-phage
B5: Ab-46 phage-scFv (scFv, V domains shown, not shown: large carriers; small tags and cut ends)
VH: EVQLVESGAEVKKPGSSVKVSCKVSGGTFGTYALNWVRQAPGQGLEWMGRIVPLIGLVNYAHNFEGRISITADKSTGTAYMELSNLRSDDTAVYYCAREVYGGNSDYWGQGTLVTVSS
VL: NFMLTQPHSVSESPGKTVTISCTRSSGNIGTNYVQWYQQRPGSAPVALIYEDYRRPSGVPDRFSGSIDSSSNSASLIISGLKPEDEADYYCQSYHSSGWEFGGGTKLTVL
notes: also called Ab-46 scFv-phage
B6: Ab-30 (antibody, V domains shown)
VH: QVQLVQSGGSVVRPGESLRLSCVASGFIFDNYDMSWVRQVPGKGLEWVSRVNWNGGSTTYADAVKGRFTISRDNTKNSLYLQMNNLRAEDTAVYYCVREFVGAYDLWGQGTTVTVSS
VL: QSALTQPASVSGSPGQSITISCTGTSSDVGGYNYVSWYQQHPGKAPKLMIYDVSNRPSGVSNRFSGSKSGNTASLTISGLQAEDEADYYCSSYTSSTLPFGGGTKLTVL
notes: also called huPD-L1 Ab # 30
B7: Ab-31 (antibody, V domains shown)
VH: QVQLVQSGAEVKKPGATVKVSCKVFGDTFRGLYIHWVRQAPGQGLEWMGGIIPIFGTANYAQKFQGRVTITTDESTSTAYMELSSLRSEDTAVYYCASGLRWGIWGWFDPWGQGTLVTVSS
VL: EIVLTQSPATLSLSPGERATLSCRASQSIGNSLAWYQQKPGQAPRLLMYGASSRATGIPDRFSGSGAGTDFTLTISSLEPEDFATYYCQQHTIPTFSFGPGTKVEVK
notes: also called huPD-L1 Ab # 31
B8: Ab-42 (antibody, V domains shown)
VH: QVQLVQSGAEVKKPGSSVKVSCKASGGTFSSYAISWVRQAPGQGLEWMGGIIPIFGTANYAQKFQGRVTITADKSTSTAYMELSSLRSEDTAVYYCARGRQMFGAGIDFWGPGTLVTVSS
VL: NFMLTQPHSVSESPGKTVTISCTRSSGSIDSNYVQWYQQRPGSAPTTVIYEDNQRPSGVPDRFSGSIDSSSNSASLTISGLKTEDEADYYCQSYDSNNRHVIFGGGTKLTVL
notes: also called huPD-L1 Ab # 42; mAb42
B9: Ab-50 (antibody, V domains shown)
VH: QVQLVQSGGEVKKPGASVKVSCKASGYTLSSHGITWVRQAPGQGLEWMGWISAHNGHASNAQKVEDRVTMTTDTSTNTAYMELRSLTADDTAVYYCARVHAALYYGMDVWGQGTLVTVSS
VL: QSVLTQPPSVSVAPGQTARITCGGNNIGSKGVHWYQQKPGQAPVLVVYDDSDRPSGIPERFSGSNSGNTATLTISRVEAGDEADYYCQVWDSSSDHWVFGGGTKLTVL
notes: also called huPD-L1 Ab # 50

Tests used:
[1] = target: T1, human PD-L1 (hPD-L1) expressed on transfected 300.19 cells (human, UniProt Q9NZQ7 19-290); experiment: FACS, hPD-L1 300.19 cells, assay 1, Ab 1 ug/ml
T1 construct: whole, on cells; also called B7H1
T1 sequence (Q9NZQ7 19-290): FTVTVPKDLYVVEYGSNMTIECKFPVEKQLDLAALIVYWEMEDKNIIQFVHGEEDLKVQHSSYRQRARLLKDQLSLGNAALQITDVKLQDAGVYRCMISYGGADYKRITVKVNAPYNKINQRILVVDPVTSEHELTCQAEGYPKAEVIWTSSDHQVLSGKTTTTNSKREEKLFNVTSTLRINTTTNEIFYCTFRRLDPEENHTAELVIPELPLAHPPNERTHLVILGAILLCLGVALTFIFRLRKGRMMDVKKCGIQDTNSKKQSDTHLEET
Description: (§1) Binding analysis of huPD-L1 antibodies were performed using PD-L1-expressing cells. […] GF1538 and GF1757 antibodies were used as controls: GF1538 is a humanized Ab against hPD-L1, and GF1757 is a humanized Ab against hPD-L2. The secondary antibody utilized was PE-goat anti-human IgG. All values represent mean fluorescence intensity (GMFI), as detected by FACs analysis.

[2] = target: T1, human PD-L1 (hPD-L1) expressed on …; experiment: FACS, hPD-L1 300.19 cells, assay 2, Ab 1 ug/ml
Description: as §1

[3] = target: T1, human PD-L1 (hPD-L1) expressed on …; experiment: FACS, hPD-L1 300.19 cells, assay 1, Ab 0.1 ug/ml
Description: as §1

[4] = target: T1, human PD-L1 (hPD-L1) expressed on …; experiment: FACS, hPD-L1 300.19 cells, assay 2, Ab 0.1 ug/ml
Description: as §1

[5] = target: T1, human PD-L1 (hPD-L1) expressed on …; experiment: FACS, hPD-L1 300.19 cells, assay 1, Ab 0.01 ug/ml
Description: as §1

[6] = target: T1, human PD-L1 (hPD-L1) expressed on …; experiment: FACS, hPD-L1 300.19 cells, assay 2, Ab 0.01 ug/ml
Description: as §1

[7] = target: T1, human PD-L1 (hPD-L1) expressed on …; experiment: FACS, hPD-L1 300.19 cells, assay 1, Ab approx 10 ug/ml
Description: as §1

[8] = target: T1, human PD-L1 (hPD-L1) expressed on …; experiment: FACS, hPD-L1 300.19 cells, assay 2, Ab approx 10 ug/ml
Description: as §1

[9] = target: T1, human PD-L1 (hPD-L1) expressed on …; experiment: competition FACS, hPD-L1 300.19 cells, signal = bound hPD-1-mIgG2a, Ab 1 ug/ml
Description: (§2) A competitive FACS analysis was performed to characterize the inhibition of hPD1 binding to hPD-L1 by the soluble huPD-L1 antibodies of the present invention. […] In this assay, 50,000 cells expressing hPD-L1 were pre-incubated with the huPD-L1 or control antibodies for 30 minutes at the following concentrations: 10 μg/ml, 1 μg/ml, 0.1 μg/ml and 0.01 μg/ml. […] After 30 minutes of incubation, the cells were washed twice and then analyzed by FACS. MFI values from Table 20 are used to generate a percent inhibition of hPD1 binding with hPD-L1+ cells for FIG. 4.

[10] = target: T1, human PD-L1 (hPD-L1) expressed on …; experiment: competition FACS, hPD-L1 300.19 cells, signal = bound hPD-1-mIgG2a, Ab 0.1 ug/ml
Description: as §2

[11] = target: T1, human PD-L1 (hPD-L1) expressed on …; experiment: competition FACS, hPD-L1 300.19 cells, signal = bound hPD-1-mIgG2a, Ab 0.01 ug/ml
Description: as §2

[12] = target: T1, human PD-L1 (hPD-L1) expressed on …; experiment: competition FACS, hPD-L1 300.19 cells, signal = bound hPD-1-mIgG2a, Ab approx 10 ug/ml
Description: as §2

[13] = target: T2, full length PD-L1 in the form of paramagnetic proteoliposomes (PMPL) (human, UniProt Q9NZQ7 19-290); experiment: phage display panning on PD-L1 proteoliposomes
T2 construct: whole, on cells; Full length protein in proteoliposomes, not on cells; the form 'whole' is meant; also called proteoliposome-coupled-PD-L1
T2 sequence (Q9NZQ7 19-290): as above

Row | Binder | Cells PE-A Mean [1] [MFI] | Cells PE-A Mean [2] [MFI] | Cells PE-A Mean [3] [MFI] | Cells PE-A Mean [4] [MFI] | Cells PE-A Mean [5] [MFI] | Cells PE-A Mean [6] [MFI] | Cells PE-A Mean [7] [MFI] | Cells PE-A Mean [8] [MFI] | Cells PE-A Mean (bound hPD-1-mIgG2a) [9] [MFI] | Cells PE-A Mean (bound hPD-1-mIgG2a) [10] [MFI] | Cells PE-A Mean (bound hPD-1-mIgG2a) [11] [MFI] | Cells PE-A Mean (bound hPD-1-mIgG2a) [12] [MFI] | binding result [13]
1 | B1 | 9650 | 26500 | 2300 | 8910 | 543 | 1760 | 24400 | 42400 | 3620 | 9140 | 12900 | 150 | –
2 | B2 | 21400 | 34900 | 5610 | 14700 | 1070 | 2690 | 28400 | 37200 | 2070 | 6750 | 11900 | 380 | –
3 | B3 | 23300 | 53200 | 8100 | 17700 | 1650 | 3700 | 41500 | 77900 | 12000 | 14900 | 15800 | 696 | –
4 | B4 | – | – | – | – | – | – | – | – | – | – | – | – | binds
5 | B5 | – | – | – | – | – | – | – | – | – | – | – | – | binds
6 | B6 | 37500 | 61200 | 17500 | 39100 | 3510 | 7720 | 47600 | 67300 | 661 | 4780 | 11600 | 244 | –
7 | B7 | 44200 | 71000 | 12500 | 37700 | 2830 | 6830 | 53800 | 76400 | 623 | 7930 | 11900 | 157 | –
8 | B8 | 40900 | 72100 | 14900 | 49400 | 2080 | 11600 | 53600 | 76800 | 142 | 3140 | 11800 | 139 | –
9 | B9 | 42100 | 63400 | 15100 | 28700 | 2690 | 5200 | 49400 | 69600 | 156 | 2800 | 12500 | 207 | –
